Measurements reported in article PMC4057743, “Arabidopsis ABA Receptor RCAR1/PYL9 Interacts with an R2R3-Type MYB Transcription Factor, AtMYB44” (International Journal of Molecular Sciences, 2014).

Molecular target: T1, His-ABI1 (Arabidopsis, UniProt P49597 1-434)
T1 construct: ABI1, type 2C protein phosphatase (PP2C), Arabidopsis; ORF subcloned into pET28a via BamH I and Hind III sites; source: Escherichia coli, purified
T1 sequence (looked up): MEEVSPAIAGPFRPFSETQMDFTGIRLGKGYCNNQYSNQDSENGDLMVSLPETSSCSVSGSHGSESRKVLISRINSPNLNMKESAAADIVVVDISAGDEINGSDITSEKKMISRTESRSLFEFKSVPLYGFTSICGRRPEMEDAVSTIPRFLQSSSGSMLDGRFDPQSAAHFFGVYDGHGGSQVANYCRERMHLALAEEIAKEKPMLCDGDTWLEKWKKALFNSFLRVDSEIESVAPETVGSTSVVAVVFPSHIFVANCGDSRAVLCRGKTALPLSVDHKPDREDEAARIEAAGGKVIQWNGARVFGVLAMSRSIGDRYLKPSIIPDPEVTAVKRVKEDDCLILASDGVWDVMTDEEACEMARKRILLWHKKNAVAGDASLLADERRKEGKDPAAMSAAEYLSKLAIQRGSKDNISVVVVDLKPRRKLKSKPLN
Assay: pull-down; competitive: 5 μg His-RCAR1/PYL9 with 0, 5 or 25 μg His-ABI1 or 25 μg His protein on immobilized GST-AtMYB44 (5 μg); 50 mM Tris-HCl pH 7.5, 100 mM NaCl, 1 mM EDTA, 0.05% β-mercaptoethanol, 0.2% Triton X-100, 10 mM MgCl2; 4 °C, 2 h; 10 μM ABA when indicated; anti-His blot
Conditions: both partners purified

- binding result: binds
B1: His-RCAR1/PYL9 (receptor, Arabidopsis, UniProt Q84MC7 1-187, looked up)
chain: MMDGVEGGTAMYGGLETVQYVRTHHQHLCRENQCTSALVKHIKAPLHLVWSLVRRFDQPQKYKPFVSRCTVIGDPEIGSLREVNVKSGLPATTSTERLELLDDEEHILGIKIIGGDHRLKNYSSILTVHPEIIEGRAGTMVIESFVVDVPQGNTKDETCYFVEALIRCNLKSLADVSERLASQDITQ
notes: ABA receptor RCAR1/PYL9, Arabidopsis; ORF subcloned into pET28a via EcoR I and Xho I sites; source: Escherichia coli, purified
